Laboratory results published in patent US20260242492A1 (JOINT STOCK COMPANY BIOCAD, published 2026).

What was measured:
[1] = target: T1, extracellular domain of the human CSF1R protein (hCSF1R_His) (human, UniProt P07333 20-512); experiment: BLI (Octet RED 384), antibody-like molecule on ProA sensors, hCSF1R_His analyte 174.2 nM, 1:1 model
T1 construct: range 20-512; Made in CHO cells, molecular weight 57.4 kDa as printed; not shown: C-terminal His-tag and FLAG-tag
Experimental: (§1) Experiments were carried out using a kinetic buffer solution (hereinafter referred to as 1×KB); volume fraction of added Tween 20 was 0.1%; mass fraction of added BSA (bovine serum albumin) was 0.1%; pH 7.4. Before the measurement, the ProA sensors were regenerated with a solution of 50 mM glycine and hydrochloric acid, pH 1.8 (5 seconds in the regenerating solution, 5 seconds in 1×KB, three repetitions).
In the case of the hPDlex-H6F and hCSF1R_His antigens, the Protein A (ProA) biosensors (ForteBio) were immersed in a solution with antibody-like molecules at a concentration of 10 µg/ml for 300 seconds to immobilize same. The baseline was recorded in 1×KB for 120 seconds. Sensors loaded with the antibody-like molecule were then immersed into wells containing a solution of the target antigen (analyte) in a kinetic buffer for 300 seconds. Measurements were performed for solutions with hPDlex-H6F analyte at concentrations of 10 µg/ml (485.4 nM), for solutions with hCSF1R_His analyte at concentrations of 10 µg/ml (174.2 nM). Complex dissociation in 1×KB was then detected for 600 seconds.
(§2) To obtain numerical values of kinetic constants (kon is the on/association rate constant, kdis is the dissociation rate constant, KD is the equilibrium dissociation constant or affinity constant), the resulting sensograms were processed according to the 1:1 interaction model using Global Fit (selection of one set of kon, kdis, KD constants to analyze several sensograms of different concentrations) of the ForteBio Octet Data Analysis 9.0 software.

[2] = target: T2, biotinylated peptide [NH2]CEPANPSEKNSPSTQYCYSIQS[CH2CH2]biotin comprising a fragment of the human CD20 … (human, [NH2] at the N-terminus; [CH2CH2]biotin at the C-terminus (so in the source)); experiment: BLI (Octet RED 384), biotinylated CD20 peptide on SAX sensors, antibody-like molecule as analyte, 1:1 model, global fit
T2 construct: Immobilized on streptavidin (SAX) sensors; also called CD20 peptide
T2 peptide: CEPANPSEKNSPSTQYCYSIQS
Experimental: as §1
In the case of biotinylated […], the peptide at a concentration of 2.5 μg/ml was immobilized on the surface of SAX sensors (High Precision Streptavidin (SAX) biosensors, ForteBio) for 300 seconds. The baseline was recorded in a 1×KB solution for 120 seconds. Sensors loaded with peptide were then immersed into wells containing the solution of antibody-like molecule (analyte) in 1×KB for 300 seconds. Measurements were performed for solutions with analyte (antibody-like molecule in case of CD20 peptide) at concentrations […] and 75 µg/ml. Complex dissociation was recorded in 1×KB for 60 seconds.
as §2

T1 sequence (P07333 20-512 limits assumed): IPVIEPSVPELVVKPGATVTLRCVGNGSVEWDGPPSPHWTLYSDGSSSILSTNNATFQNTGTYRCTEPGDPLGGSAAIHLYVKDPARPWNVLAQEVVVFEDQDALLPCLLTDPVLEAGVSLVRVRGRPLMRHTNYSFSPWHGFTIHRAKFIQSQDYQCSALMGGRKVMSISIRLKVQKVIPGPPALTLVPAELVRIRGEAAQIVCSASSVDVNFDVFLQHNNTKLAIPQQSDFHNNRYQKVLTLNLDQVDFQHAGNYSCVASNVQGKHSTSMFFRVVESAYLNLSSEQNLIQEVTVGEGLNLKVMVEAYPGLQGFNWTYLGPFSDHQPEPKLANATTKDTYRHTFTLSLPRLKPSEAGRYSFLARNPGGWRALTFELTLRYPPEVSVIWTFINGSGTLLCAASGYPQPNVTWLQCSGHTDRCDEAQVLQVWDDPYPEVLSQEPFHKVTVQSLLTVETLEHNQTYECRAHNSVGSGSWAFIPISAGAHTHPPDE

Kd [1]: 0.00192 µM
koff [1]: 0.000372 s⁻¹
kon [1]: 194000 M⁻¹ s⁻¹
Kd [2]: 2.6 µM
koff [2]: 0.418 s⁻¹
kon [2]: 161000 M⁻¹ s⁻¹
B1: antibody-like molecule 08-006 (binds CSF1R and CD20) (bispecific antibody, human IgG1, kappa, L234A L235A)
heavy 1: QVQLVESGGGLVRPGGSLRLSCAASEFTFDDYAMSWVRQAPGKGLEWVSAISWNGGSTNYADSVKGRFTISRDNAKNSLYLQMNSLRAEDTALYYCASTVEVAHRRLYKYLEVWGQGTLVTVSSASTKGPSVFPLAPSSKSTSGGTAALGCLVKDYFPEPVTVSWNSGALTSGVHTFPAVLQSSGLYSLSSVVTVPSSSLGTQTYICNVNHKPSNTKVDKRVEPKSCDKTHTCPPCPAPEAAGGPSVFLFPPKPKDTLYITREPEVTCVVVDVSHEDPEVKFNWYVDGVEVHNAKTKPREEQYNSTYRVVSVLTVLHQDWLNGKEYKCKVSNKALPAPIEKTISKAKGQPREPQVCTLPPSRDELTKNQVSLSCAVKGFYPSDIAVEWESNGQPENNYKTTPPVLDSDGSFFLVSKLTVDKSRWQQGNVFSCSVMHEALHNHYTQKSLSLSPGK
light 1: QAGLTQPPSVSVAPGQTARITCGGNNIGSKSVHWYQQKPGQAPVLVVYGDSDRPSGIPERFSGSNSGNTATLTISRVEAGDEADYYCQVWDISSDHVVFGGGTQLTVLRTVAAPSVFIFPPSDEQLKSGTASVVCLLNNFYPREAKVQWKVDNALQSGNSQESVTEQDSKDSTYSLSSTLTLSKADYEKHKVYACEVTHQGLSSPVTKSFNRGEC
heavy 2: not shown
light 2: DIQMTQSPSSLSASVGDRVTITCRASSSVSYMHWYQQKPGKAPKPLIYAPSNLASGVPSRFSGSGSGTDFTLTISSLQPEDFATYYCQQWSFNPPTFGQGTKVEIKQRQVKPEAWLSKGPSPGPGRLQLVCHVSGFYPKPVWVMWMRGEQEQQGTQLGDILPNADWTWYLRATLDVADGEAAGLSCRVKHSSLEGQDIILYWRGSC
notes: Four distinct chains: anti-CSF1R Fab arm (hole) and Ocrelizumab Fab-like arm with b2m/CD1b alpha3 dimerization unit (knob)
